Measurements reported in publication PMC8385992.

Columns and labels:
Test in all cases: SEC
[1] = biological target: SARS-CoV-2 Nsp15 N278A (SARS-CoV-2)
[2] = biological target: SARS-CoV-2 Nsp15 S294A (SARS-CoV-2)
[3] = biological target: SARS-CoV-2 Nsp15 W333A (SARS-CoV-2)
[4] = biological target: SARS-CoV-2 Nsp15 Y343A (SARS-CoV-2)

For SARS-CoV-2 Nsp15 N278A (enzyme), the stoichiometry N [1] was 6.

With SARS-CoV-2 Nsp15 S294A (enzyme) the stoichiometry N [2] was 6.

SARS-CoV-2 Nsp15 W333A (enzyme) showed a stoichiometry N [3] of 6.

For SARS-CoV-2 Nsp15 Y343A (enzyme), the stoichiometry N [4] was 6.
